Six molecules from patent publication US20220298218A1 (ANTAG THERAPEUTICS, published 2022) can be followed below.

*1 amine or outer side, *2 acyl side, *3 side chain or, on linkers, in order; H or OH if unused. Where no end group is shown, it is not given here. Side-chain parts run from the residue outwards. The star is where a group is joined. C18 diacid = O=C(O)CCCCCCCCCCCCCCCCC(=O)*; C16 diacid = O=C(O)CCCCCCCCCCCCCCC(=O)*; γGlu = O=C(O)[C@H](CCC(=O)[*:2])N[*:1]; AEEA = NCCOCCOCC(=O)O

To fix the notation:
T1: human GIP receptor (human, UniProt P48546 22-466)
T1 sequence (looked up): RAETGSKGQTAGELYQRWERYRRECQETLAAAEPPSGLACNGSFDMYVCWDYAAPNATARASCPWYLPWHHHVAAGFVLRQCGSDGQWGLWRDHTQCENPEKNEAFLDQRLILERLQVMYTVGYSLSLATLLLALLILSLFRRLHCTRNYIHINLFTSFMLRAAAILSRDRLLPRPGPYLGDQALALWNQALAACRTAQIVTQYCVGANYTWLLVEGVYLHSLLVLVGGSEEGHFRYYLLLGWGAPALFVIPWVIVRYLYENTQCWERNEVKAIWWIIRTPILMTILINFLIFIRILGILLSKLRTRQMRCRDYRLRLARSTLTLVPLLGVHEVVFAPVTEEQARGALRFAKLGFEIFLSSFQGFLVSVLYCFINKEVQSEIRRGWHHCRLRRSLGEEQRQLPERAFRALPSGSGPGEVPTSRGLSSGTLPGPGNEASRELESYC

B1: AT423 (peptide)
peptide: SGTFISDYSIAMDRIK([AEEA-AEEA-γGlu-C16 diacid])QQDFVNWLLAQRGRRNDW-OH
modifications: N-terminus assumed
SMILES: CC[C@H](C)[C@H](NC(=O)[C@H](CO)NC(=O)[C@H](Cc1ccc(O)cc1)NC(=O)[C@H](CC(=O)O)NC(=O)[C@H](CO)NC(=O)[C@@H](NC(=O)[C@H](Cc1ccccc1)NC(=O)[C@@H](NC(=O)CNC(=O)[C@@H](N)CO)[C@@H](C)O)[C@@H](C)CC)C(=O)N[C@@H](C)C(=O)N[C@@H](CCSC)C(=O)N[C@@H](CC(=O)O)C(=O)N[C@@H](CCCNC(=N)N)C(=O)N[C@H](C(=O)N[C@@H](CCCCNC(=O)COCCOCCNC(=O)COCCOCCNC(=O)CC[C@H](NC(=O)CCCCCCCCCCCCCCC(=O)O)C(=O)O)C(=O)N[C@@H](CCC(N)=O)C(=O)N[C@@H](CCC(N)=O)C(=O)N[C@@H](CC(=O)O)C(=O)N[C@@H](Cc1ccccc1)C(=O)N[C@H](C(=O)N[C@@H](CC(N)=O)C(=O)N[C@@H](Cc1c[nH]c2ccccc12)C(=O)N[C@@H](CC(C)C)C(=O)N[C@@H](CC(C)C)C(=O)N[C@@H](C)C(=O)N[C@@H](CCC(N)=O)C(=O)N[C@@H](CCCNC(=N)N)C(=O)NCC(=O)N[C@@H](CCCNC(=N)N)C(=O)N[C@@H](CCCNC(=N)N)C(=O)N[C@@H](CC(N)=O)C(=O)N[C@@H](CC(=O)O)C(=O)N[C@@H](Cc1c[nH]c2ccccc12)C(=O)O)C(C)C)[C@@H](C)CC
B2: AT433 (peptide)
peptide: EGTFISDYSIAMDKIK([AEEA-AEEA-γGlu-C18 diacid])QQDFVNWLLAQKGPSSGAPPPS
B3: AT435 (peptide)
peptide: SGTFISDYSIAMDKIK([AEEA-AEEA-γGlu-C16 diacid])QQDFVNWLLAQKGPSSGAPPPS-OH
modifications: N-terminus assumed
SMILES: CC[C@H](C)[C@H](NC(=O)[C@H](CO)NC(=O)[C@H](Cc1ccc(O)cc1)NC(=O)[C@H](CC(=O)O)NC(=O)[C@H](CO)NC(=O)[C@@H](NC(=O)[C@H](Cc1ccccc1)NC(=O)[C@@H](NC(=O)CNC(=O)[C@@H](N)CO)[C@@H](C)O)[C@@H](C)CC)C(=O)N[C@@H](C)C(=O)N[C@@H](CCSC)C(=O)N[C@@H](CC(=O)O)C(=O)N[C@@H](CCCCN)C(=O)N[C@H](C(=O)N[C@@H](CCCCNC(=O)COCCOCCNC(=O)COCCOCCNC(=O)CC[C@H](NC(=O)CCCCCCCCCCCCCCC(=O)O)C(=O)O)C(=O)N[C@@H](CCC(N)=O)C(=O)N[C@@H](CCC(N)=O)C(=O)N[C@@H](CC(=O)O)C(=O)N[C@@H](Cc1ccccc1)C(=O)N[C@H](C(=O)N[C@@H](CC(N)=O)C(=O)N[C@@H](Cc1c[nH]c2ccccc12)C(=O)N[C@@H](CC(C)C)C(=O)N[C@@H](CC(C)C)C(=O)N[C@@H](C)C(=O)N[C@@H](CCC(N)=O)C(=O)N[C@@H](CCCCN)C(=O)NCC(=O)N1CCC[C@H]1C(=O)N[C@@H](CO)C(=O)N[C@@H](CO)C(=O)NCC(=O)N[C@@H](C)C(=O)N1CCC[C@H]1C(=O)N1CCC[C@H]1C(=O)N1CCC[C@H]1C(=O)N[C@@H](CO)C(=O)O)C(C)C)[C@@H](C)CC
B4: AT431 (peptide)
peptide: EGTFISDYSIAMDKIK([AEEA-AEEA-γGlu-C16 diacid])QQDFVNWLLAQKGPSSGAPPPS-OH
modifications: N-terminus assumed
SMILES: CC[C@H](C)[C@H](NC(=O)[C@H](CO)NC(=O)[C@H](Cc1ccc(O)cc1)NC(=O)[C@H](CC(=O)O)NC(=O)[C@H](CO)NC(=O)[C@@H](NC(=O)[C@H](Cc1ccccc1)NC(=O)[C@@H](NC(=O)CNC(=O)[C@@H](N)CCC(=O)O)[C@@H](C)O)[C@@H](C)CC)C(=O)N[C@@H](C)C(=O)N[C@@H](CCSC)C(=O)N[C@@H](CC(=O)O)C(=O)N[C@@H](CCCCN)C(=O)N[C@H](C(=O)N[C@@H](CCCCNC(=O)COCCOCCNC(=O)COCCOCCNC(=O)CC[C@H](NC(=O)CCCCCCCCCCCCCCC(=O)O)C(=O)O)C(=O)N[C@@H](CCC(N)=O)C(=O)N[C@@H](CCC(N)=O)C(=O)N[C@@H](CC(=O)O)C(=O)N[C@@H](Cc1ccccc1)C(=O)N[C@H](C(=O)N[C@@H](CC(N)=O)C(=O)N[C@@H](Cc1c[nH]c2ccccc12)C(=O)N[C@@H](CC(C)C)C(=O)N[C@@H](CC(C)C)C(=O)N[C@@H](C)C(=O)N[C@@H](CCC(N)=O)C(=O)N[C@@H](CCCCN)C(=O)NCC(=O)N1CCC[C@H]1C(=O)N[C@@H](CO)C(=O)N[C@@H](CO)C(=O)NCC(=O)N[C@@H](C)C(=O)N1CCC[C@H]1C(=O)N1CCC[C@H]1C(=O)N1CCC[C@H]1C(=O)N[C@@H](CO)C(=O)O)C(C)C)[C@@H](C)CC
B5: AT434 (peptide)
peptide: EGTFISDYSIAMDKIK([AEEA-AEEA-AEEA-γGlu-C18 diacid])QQDFVNWLLAQKGPSSGAPPPS-OH
modifications: N-terminus assumed
SMILES: CC[C@H](C)[C@H](NC(=O)[C@H](CO)NC(=O)[C@H](Cc1ccc(O)cc1)NC(=O)[C@H](CC(=O)O)NC(=O)[C@H](CO)NC(=O)[C@@H](NC(=O)[C@H](Cc1ccccc1)NC(=O)[C@@H](NC(=O)CNC(=O)[C@@H](N)CCC(=O)O)[C@@H](C)O)[C@@H](C)CC)C(=O)N[C@@H](C)C(=O)N[C@@H](CCSC)C(=O)N[C@@H](CC(=O)O)C(=O)N[C@@H](CCCCN)C(=O)N[C@H](C(=O)N[C@@H](CCCCNC(=O)COCCOCCNC(=O)COCCOCCNC(=O)COCCOCCNC(=O)CC[C@H](NC(=O)CCCCCCCCCCCCCCCCC(=O)O)C(=O)O)C(=O)N[C@@H](CCC(N)=O)C(=O)N[C@@H](CCC(N)=O)C(=O)N[C@@H](CC(=O)O)C(=O)N[C@@H](Cc1ccccc1)C(=O)N[C@H](C(=O)N[C@@H](CC(N)=O)C(=O)N[C@@H](Cc1c[nH]c2ccccc12)C(=O)N[C@@H](CC(C)C)C(=O)N[C@@H](CC(C)C)C(=O)N[C@@H](C)C(=O)N[C@@H](CCC(N)=O)C(=O)N[C@@H](CCCCN)C(=O)NCC(=O)N1CCC[C@H]1C(=O)N[C@@H](CO)C(=O)N[C@@H](CO)C(=O)NCC(=O)N[C@@H](C)C(=O)N1CCC[C@H]1C(=O)N1CCC[C@H]1C(=O)N1CCC[C@H]1C(=O)N[C@@H](CO)C(=O)O)C(C)C)[C@@H](C)CC
B6: AT475 (peptide)
peptide: FISDYSIAMDKIK(C16 diacid)QQDFVNWLLAQKGPSSGAPPPS-OH
modifications: N-terminus assumed
SMILES: CC[C@H](C)[C@H](NC(=O)[C@H](CO)NC(=O)[C@H](Cc1ccc(O)cc1)NC(=O)[C@H](CC(=O)O)NC(=O)[C@H](CO)NC(=O)[C@@H](NC(=O)[C@@H](N)Cc1ccccc1)[C@@H](C)CC)C(=O)N[C@@H](C)C(=O)N[C@@H](CCSC)C(=O)N[C@@H](CC(=O)O)C(=O)N[C@@H](CCCCN)C(=O)N[C@H](C(=O)N[C@@H](CCCCNC(=O)CCCCCCCCCCCCCCC(=O)O)C(=O)N[C@@H](CCC(N)=O)C(=O)N[C@@H](CCC(N)=O)C(=O)N[C@@H](CC(=O)O)C(=O)N[C@@H](Cc1ccccc1)C(=O)N[C@H](C(=O)N[C@@H](CC(N)=O)C(=O)N[C@@H](Cc1c[nH]c2ccccc12)C(=O)N[C@@H](CC(C)C)C(=O)N[C@@H](CC(C)C)C(=O)N[C@@H](C)C(=O)N[C@@H](CCC(N)=O)C(=O)N[C@@H](CCCCN)C(=O)NCC(=O)N1CCC[C@H]1C(=O)N[C@@H](CO)C(=O)N[C@@H](CO)C(=O)NCC(=O)N[C@@H](C)C(=O)N1CCC[C@H]1C(=O)N1CCC[C@H]1C(=O)N1CCC[C@H]1C(=O)N[C@@H](CO)C(=O)O)C(C)C)[C@@H](C)CC

The first assay deals with T1, human GIP receptor. In words: cell-based or functional assay.
As to B1, the “cAMP antagonism” value was 6 nM, the “cAMP antagonism % inhib” value is 95% and the cAMP antagonism log is -8.2 log M.

On to B2, for which the “cAMP antagonism” value was 62 nM, the “cAMP antagonism % inhib” value turned out to be 100% and the cAMP antagonism log was -7.2 log M.

As to B3, the “cAMP antagonism” value stood at 75 nM, the “cAMP antagonism % inhib” value is 100% and the cAMP antagonism log was -7.1 log M.

Regarding B4, the “cAMP antagonism” value is 7 nM, the “cAMP antagonism % inhib” value turned out to be 75% and the cAMP antagonism log is -8.1 log M.

As to B5, the “cAMP antagonism” value was determined as 14 nM, the “cAMP antagonism % inhib” value turned out to be 100% and the cAMP antagonism log was -7.9 log M.

For the molecule B6, the “cAMP antagonism” value was 4 nM, the “cAMP antagonism % inhib” value turned out to be 100% and the cAMP antagonism log was -8.4 log M.

Another assay deals with T1, human GIP receptor. Put plainly: cell-based or functional assay. The source holds these as a separate data set.
As for B1, the “cAMP agonism % Emax” value was found to be 0%, the “cAMP antagonism” value came to 79.4 nM, the “cAMP antagonism % inhib” value was determined as 71% and the “cAMP antagonism pIC50” value is 7.1.

For the molecule B2, the “cAMP agonism % Emax” value came out at 0%, the “cAMP antagonism” value is 7.94 nM, the “cAMP antagonism % inhib” value was determined as 89% and the “cAMP antagonism pIC50” value was found to be 8.1.

As for B3, the “cAMP antagonism” value came out at 79.4 nM, the “cAMP antagonism % inhib” value came out at 84% and the “cAMP antagonism pIC50” value was found to be 7.1.

For B4, the “cAMP agonism % Emax” value was 0%, the “cAMP antagonism” value worked out at 34.2 nM, the “cAMP antagonism % inhib” value stood at 77% and the “cAMP antagonism pIC50” value turned out to be 7.5.

For the molecule B5, the “cAMP antagonism” value is 35.5 nM, the “cAMP antagonism % inhib” value came to 95% and the “cAMP antagonism pIC50” value amounted to 7.5.

As to B6, the “cAMP agonism % Emax” value turned out to be 0%, the “cAMP antagonism” value was determined as 7.9 nM, the “cAMP antagonism % inhib” value came to 96% and the “cAMP antagonism pIC50” value came out at 8.1.
